Patent US20250116035, “A METHOD FOR REPRODUCIBLE APTAMER SELECTION USING CLOSED SEQUENCE SOLUTION SPACES” (NEOVENTURES BIOTECHNOLOGY INC., published 2025)

B1: fBIgG-2 (ssDNA)
DNA: CCAGATACAGACCCGAGGTGAGAATTTCAACCATCGGCGCCAACAAAACATTCTCTCAGATACAGTAGACAGC
modifications: 5' thiol (immobilized on gold)

Assays:
[1] = test system: immunoglobulin G (IgG), pooled; assay: SPR; settings: 5' thiol (immobilized on gold); SPR imaging, aptamer immobilized on gold chip; IgG 250 nM; ka 3.69E5, kd 7.56E-3
[2] = target: human serum albumin (HSA) (Homo sapiens, UniProt P02768 P02768:25-609); assay: SPR; counter-target; 250 nM HSA; aptamer described as selected to bind IgG and not HSA; curve only in figure
Protocol: These sequences were synthesized with a 5′ thiol and immobilized onto a gold surface in triplicate spots at a concentration of 5 uM in a volume of 10 nL. A negative aptamer of the same length not selected for binding to serum albumin was also spotted on the gold chips in the same manner. These were allowed to dry, and the remainder of the surface was blocked with thiolylated polyethylene glycol with an average molecular weight of 5 kda. The gold chips were then inserted on top of a glass prism in a Horiba Openplex Surface Plasmon Resonance imaging instrument (SPRi). Human serum albumin at two concentrations (100 nM and 250 nM) was injected over the chip at a volume of 200 uL and a flow rate of 50 uL/min. We also injected a pool of immunoglobulin (IgG) at a concentration of 250 nM at the same volume and flow rates.
Binding analysis for the selected IgG sequences was performed in a manner identical to that described for the HSA sequences.

Sequence of human serum albumin (HSA) (P02768 25-609, one chain of several): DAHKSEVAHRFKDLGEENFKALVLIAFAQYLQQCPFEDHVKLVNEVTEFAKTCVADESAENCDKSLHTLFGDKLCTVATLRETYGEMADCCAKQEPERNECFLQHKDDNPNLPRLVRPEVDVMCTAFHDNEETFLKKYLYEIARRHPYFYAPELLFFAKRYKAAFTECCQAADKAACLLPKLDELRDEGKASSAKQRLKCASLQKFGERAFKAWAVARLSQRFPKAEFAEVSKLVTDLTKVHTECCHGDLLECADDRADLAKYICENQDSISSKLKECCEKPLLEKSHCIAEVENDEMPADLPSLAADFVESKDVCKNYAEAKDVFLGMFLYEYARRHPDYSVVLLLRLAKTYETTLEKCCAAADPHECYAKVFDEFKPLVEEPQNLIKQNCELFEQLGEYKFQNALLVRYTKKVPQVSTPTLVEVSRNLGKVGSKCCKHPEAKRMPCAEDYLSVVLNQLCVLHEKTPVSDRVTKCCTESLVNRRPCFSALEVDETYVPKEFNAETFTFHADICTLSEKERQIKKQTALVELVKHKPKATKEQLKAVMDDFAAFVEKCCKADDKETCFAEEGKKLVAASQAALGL

| Molecule | Kd [1] | binding result [2] |
| --- | --- | --- |
| CCAGATACAGACCCGAGGTGAGAATTTCAACCATCGGCGCCAACAAAACATTCTCTCAGATACAGTAGACAGC [fBIgG-2] | 20.5 nM | – |
| B1 | – | no binding |
